From patent publication US20090068102A1, “TREATING STROKE” (BIOGEN IDEC MA INC., priority 2005, published 2009)

How the values were obtained:
NF-κB = NF-κB luciferase reporter (pNF-κB-Luc) in transfected cortical neurons; type: cell-based, mouse
Experimental: (§1) Cell culture and transient transfection. Cortical neurons were prepared from embryonic day 16 (E16) mice. For transfection, cells were plated on 24-well plates precoated with poly-D-lysine (50 ng/ml) at a density of 200,000 cells per well. For RNA preparation, 2 million cells per well were plated on six-well plates. Cells were incubated in NEUROBASAL™ medium (Invitrogen) supplemented with B27 (Invitrogen), L-glutamine (0.5 mM), penicillin (100 IU/ml), and streptomycin (100 μg/ml). In these cultures, >95% of cells were positive for the neuronal marker NeuN. After 10 days in vitro, cells were transfected using LIPOFECTAMINE™ 2000 (Invitrogen) and 1 ng per well of the NF-κB reporter plasmid pNF-κB-Luc, which has five tandem repeats of an NF-κB binding site (Stratagene, Amsterdam, The Netherlands), according to the manufacturer's protocol. After 24 hours, cells were stimulated as indicated and harvested. Luciferase activity was measured as described (Sallmann et al. (2000) J. Neurosci. 20:8637-8642).
As indicated, cortical neurons were prepared from a transgenic mouse line (NSE-IκBα-SR) that expressed the NF-κB super-repressor, a mutant of IκBα (IκBα-SR), selectively in neurons. In this transgene, two serine residues, which are phosphorylated by the IκB kinase (IKK), are exchanged to alanines. Neuronal expression is driven by a 1.8 KB fragment of the rat neuron-specific enolase (NSE) promoter. The cell dissociation was performed individually from the brain of each transgenic or wild-type embryo. To control for transfection efficiency, cortical neurons of NSE-IκBα-SR mice and wild-type littermates were cotransfected with 0.1 μg Per well of phRL-TK (Promega, Mannheim, Germany) in addition to pNF-κB-Luc.

cortical neurons [1] = assay: TWEAK-induced cell death in cortical neurons (DAPI and TUNEL staining); type: cell-based
Experimental: as §1
As indicated, cortical neurons were prepared from a transgenic mouse line (NSE-IκBα-SR) that expressed the NF-κB super-repressor, a mutant of IκBα (IκBα-SR), selectively in neurons. In this transgene, two serine residues, which are phosphorylated by the IκB kinase (IKK), are exchanged to alanines. Neuronal expression is driven by a 1.8 KB fragment of the rat neuron-specific enolase (NSE) promoter. The cell dissociation was performed individually from the brain of each transgenic or wild-type embryo. […]
Cell death assays. […] TUNEL and DAPI-positive cells were detected under a fluorescent microscope. On each coverslip, five randomly selected fields were counted with a 40× objective (corresponding to ˜800 cells per coverslip). […] Lactate dehydrogenase (LDH) activity in medium was quantified with the Cytotoxicity Detection Kit (LDH; Roche). LDH activity in untreated sister cultures was subtracted, and the LDH activity was expressed as percentage of the maximally releasable LDH pool in the presence of 1 mM glutamate.

cortical neurons [2] = assay: Cell Death Detection ELISA (histone-associated DNA fragments) in cortical neurons; type: cell-based, mouse; details: 100 ng/ml, 24 hr
Experimental: Cell death assays. For terminal deoxynucleotidyl transferase-mediated biotinylated UTP nick end labeling (TUNEL) staining, the cells were fixed in 4% paraformaldehyde at room temperature for 30 minutes. Then, cells were washed twice in PBS for 5 minutes and treated for 2 minutes with 200 μl of permeabilization solution (0.1% Triton X-100 and 0.1% sodium citrate in PBS) at 4° C. After washing, sections were incubated with 50 μl of TUNEL reaction mix (enzyme solution diluted 1:6 in labeling solution; In Situ Cell Detection Kit, Fluorescein; Roche, Mannheim, Germany) for 1 hour at 37° C. in the dark. Then, coverslips were mounted with medium containing 4′,6-diamidino-2-phenylindole dihydrochloride (DAPI; VECTASHIELD®; Vector Laboratories, Burlingame, Calif.). TUNEL and DAPI-positive cells were detected under a fluorescent microscope. On each coverslip, five randomly selected fields were counted with a 40× objective (corresponding to ˜800 cells per coverslip). Cell Death Detection ELISA^Plus (Roche) was performed according to the manufacturer's instructions. Lactate dehydrogenase (LDH) activity in medium was quantified with the Cytotoxicity Detection Kit (LDH; Roche). LDH activity in untreated sister cultures was subtracted, and the LDH activity was expressed as percentage of the maximally releasable LDH pool in the presence of 1 mM glutamate.

[3] = exposure for 24 hours, 100 ng/ml

| Molecule | NF-κB activation by rhTWEAK and Fc-hTWEAK (NF-κB; BMS-345541 25 μM) | nuclear condensation (DAPI stain) (cortical neurons [1]; [3]) | number of cortical neurons that were TUNEL positive (cortical neurons [1]; [3]) | cell death (TUNEL) in IκBα-SR-expressing neurons vs wild-type (cortical neurons [1]; rhTWEAK 100 ng/ml, 24 hours) | DNA-histone complexes specific to apoptotic DNA fragmentation (ELISA) (cortical neurons [2]) | effect size in DNA-histone ELISA compared with camptothecin (cortical neurons [2]; vs 10 μM camptothecin) | NF-κB stimulation in neurons of NSE-IκBα-SR mice vs wild-type littermates (NF-κB; rhTWEAK 100 ng/ml) | NF-κB activity (luciferase) (NF-κB; stimulation for 24 hours) |
| --- | --- | --- | --- | --- | --- | --- | --- | --- |
| Cc1ccc2nc(NCCN)c3ncc(C)n3c2c1 [BMS-345541, reference compound] | blocked |  |  |  |  |  |  |  |
| rhTWEAK: recombinant soluble human TWEAK containing amino-acid residues A106-H249 (protein, UniProt O43508 106-249, looked up, fragment) AIAAHYEVHPRPGQDGAQAGVDGTVSGWEEARINSSSPLRYNRQIGEFIVTRAGLYYLYCQVHFDEGKAVYLKLDLLVDGVLALRCLEEFSATAASSLGPQLRLCQVSGLLALRPGSSLRIRTLPWAHLKAAPFLTYFGLFQVH |  | induced nuclear condensation | increased significantly | protected from cell death | programmed cell death being induced | comparable with the one with 10 μM camptothecin | significantly less | stimulated NF-κB activity in a concentration-dependent manner |
